The values that follow come from patent US20100138945A1 (FEMTA PHARMACEUTICALS, published 2010).

In general, Kd refers to the free concentration of one partner at which half of the binding sites on the other are occupied at equilibrium, for simple one-to-one binding. The koff is a measure of how fast the partners let go of each other. For orientation: kon means the second-order rate constant of association. The low end stands for slower complex formation, the high end for faster complex formation.

Where a chain is given by its changes, count along the chain named. Read-outs that look alike come from different tables or passages of the source.

Experiment [1] deals with T1, human IL-6 (Interleukin-6) (human, UniProt P05231 30-212).
T1 construct: also called 001 IL-6 antigen
Nature of the experiment: Sapidyne KinExA kinetic exclusion assay on IL-6; Kd Range (95% Confidence Interval) printed: 5.66pM to 3.28pM.
Target sequence in this assay (P05231 30-212 limits assumed): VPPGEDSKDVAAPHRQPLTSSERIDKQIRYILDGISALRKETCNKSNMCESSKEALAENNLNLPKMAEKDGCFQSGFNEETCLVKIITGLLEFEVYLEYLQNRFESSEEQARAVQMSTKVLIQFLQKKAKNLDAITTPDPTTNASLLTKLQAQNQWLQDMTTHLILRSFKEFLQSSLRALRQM

Experiment [2] addresses T1, human IL-6 (Interleukin-6). As to the kind of experiment: Biacore (SPR), antibody captured on anti-human Fc, IL-6 as analyte. (In general: In SPR one partner is held on a chip, and binding of the other changes the refractive index at the surface.)
For experiment [3], the target named is T1, human IL-6 (Interleukin-6). Described as above. The source holds these as a separate data set.
For experiment [4], the target named is T1, human IL-6 (Interleukin-6). Nature of the experiment: specific activity: affinity ELISA on IL-6 divided by quantitation ELISA, normalized to BA399 = 1. Here is the method:
200 μl washing solution (0.05% Tween-20 in PBS) was added and shaken at 200 RPM for 5 min at room temperature. The plates were emptied and residual liquid tapped out on paper towels. 200 μl blocking solution (2% Carnation milk in PBS) was added and shaken at 200 RPM for one hour at room temperature. Plates were emptied and residual liquid tapped out on paper towels. 100 μl of diluted samples for ELISA was used. The samples were shaken at 200 RPM for one hour at room temperature; plates emptied and residual liquid tapped out on paper towels. 200 μl washing solution (0.05% Tween-20 in PBS) was added, shaken at 200 RPM for 5 min at room temperature; plates emptied and residual liquid tapped out on paper towels. This process was repeated three times. 100 μl of 1:2500 dilution of anti-human IgG conjugated with HRP diluted in block solution (2% Carnation milk in PBS) was added for 001 samples. 100 μl of 1:2500 dilution of anti-rabbit IgG conjugated with HRP diluted in block solution (2% Carnation milk in PBS) was added for control antibody. The contents were shaken at 200 RPM for one hour at room temperature, plates emptied and residue liquid tapped out on paper towels. 200 μl washing solution (0.05% Tween-20 in PBS) was added, shaken at 200 RPM for 5 min at room temperature; plates emptied and residual liquid tapped out on paper towels. This process was repeated three times. 100 μl TMB substrate solution was added, and incubated at room temperature. The reaction was stopped with 1 N HCl, and the plate read at 450 nm.
This ELISA was used for determining the expression level of antibodies in cell culture supernatant. […] Covered with plate sealer and incubated at 4° C. overnight. Emptied plate and tapped out residual liquid on paper towels. Added 200 μl washing solution (0.05% Tween-20 in PBS). Shaken at 200 RPM for 5 min at room temperature. Emptied plate and tapped out residual liquid on paper towels. Added 200 μl blocking solution (2% Carnation milk in PBS). Shaken at 200 RPM for one hour at room temperature. Emptied plate and tapped out residual liquid on paper towels. Used 100 μl of diluted sample for ELISA. 20 ng/ml of human IgG and 1:2 dilution thereafter was used for standards.

On to “Anti-IL-6 Mab BA003 (CNTO136) (antibody)”, for which the Kd in experiment [1] is 4.37 pM. This lies in the picomolar range.

B1: Anti-IL-6 Ab BA802 (antibody, V domains shown)
VH: QVQLVQSGAEVKKPGASVKVSCKASGFTFSSFAMSWIRQSPSRGLEWLGEISSGGSYTYYPDTVTGRFTISRDNAKNSLYLQMNSLRAEDTAVYYCARGLWGYYALDYWGQG
VL: EIVLTQSPDFQSVTPKEKVTITCSASSSVSYMYWYLQKPGQSPQLLIYDTSNLASGVPSRFSGSGSGTDFTLTISSLQPEDFATYYCQQWSGYPYTFGQG
notes: Humanized monoclonal antibody
As to B1, in experiment [2], the affinity, expressed as Kd, was 39.6 pM; the dissociation rate constant (koff) stood at 5.88e-05 s⁻¹; the kon came to 1.48e+06 M⁻¹ s⁻¹.

B2: Anti-IL-6 Ab BA840 (antibody, V domains shown)
VH: B1 VH with S40P, S42G, R43K, L48I
VL: EIVLTQSPDFQSVTPKEKVTITCSASSSVSYMYWYLQKPGQSPQLLIYDTSNLASGIPPRFSGSGYGTDFTLTINNIESEDAAYYFCQQWSGYPYTFGQG
notes: Humanized monoclonal antibody
Take B2: in experiment [2], the equilibrium dissociation constant (Kd) came out at 236 pM, the off-rate (koff) is 0.000237 s⁻¹ and the kon worked out at 1.01e+06 M⁻¹ s⁻¹.

B3: Anti-IL-6 Ab BA808 (antibody, V domains shown)
VH: B1 VH
VL: B2 VL with D9A, F10T, Q11L, T14S, K16G, K18R, V19A, I21L, T22S
notes: Humanized monoclonal antibody
On to B3, for which, in experiment [2], the affinity, expressed as Kd, was 50.5 pM; the koff is 6.59e-05 s⁻¹; the kon worked out at 1.31e+06 M⁻¹ s⁻¹.

B4: Anti-IL-6 Ab BA939 (antibody, V domains shown)
VH: B1 VH with I37V, S40A, S42G, R43Q, L48M
VL: DIQMTQSPSSLSASVGDRVTITCSASSSVSYMYWYQQKPGQAPRLLIYDTSNLASGIPPRFSGSGYGTDFTLTINNIESEDAAYYFCQQWSGYPYTFGQG
notes: Humanized monoclonal antibody
In experiment [2], B4 registered a Kd of 40 pM, a koff of 5.76e-05 s⁻¹ and an on-rate constant (kon) of 1.44e+06 M⁻¹ s⁻¹.

B5: Clone BA399-02 (antibody, V domains shown)
VH: B1 VH with A33S, V64K, L100Q
VL: B4 VL with D1A, M4L, S24Y
notes: also called BA399-2; BA399 clone #2
Take B5: in experiment [3], the Ka worked out at 8.14e+13 M⁻¹, the Kd stood at 0.0123 pM, the koff worked out at 9.11e-09 s⁻¹ and the on-rate constant (kon) stood at 742000 M⁻¹ s⁻¹.

B6: Anti-IL-6 Ab BA890 (antibody, V domains shown)
VH: B1 VH with S40P, S42G, R43K, L48I
VL: B4 VL with D1A, M4L
notes: Humanized monoclonal antibody
In experiment [2], B6 came in with a Kd of 86.5 pM, a dissociation rate constant (koff) of 6.44e-05 s⁻¹ and a kon of 745000 M⁻¹ s⁻¹.

B7: BA399_CPS_10 (antibody, V domains shown)
VH: B1 VH with G26H, A33S, T58H, L100Q
VL: B4 VL with D1A, M4L, S24Y, S51L
notes: also called Clone BA399-10; BA399_10
In experiment [3], B7 returned a Ka of 3.52e+12 M⁻¹, a Kd of 0.284 pM, a koff of 1.82e-07 s⁻¹ and a kon of 643000 M⁻¹ s⁻¹.

B8: BA399_CPS_06 (antibody, V domains shown)
VH: B1 VH with A33S, T58H, L100Q
VL: B4 VL with D1A, M4L, S24Y, S51L, Q89D
notes: also called Clone BA399-06; BA399_06
Take B8: the binding result in experiment [4] is given as “binds”.

B9: BA399_CPS_03 (antibody, V domains shown)
VH: B1 VH with G26H, T58H, L100Q
VL: B4 VL with D1A, M4L, S51L
notes: also called Clone BA399-03; BA399_03
As to B9, the binding result in experiment [4] is recorded as “binds”.

B10: Clone BA399-09 (antibody, V domains shown)
VH: B1 VH with A33S, T58H, L100Q
VL: B4 VL with D1A, M4L, S24Y, S51L
notes: also called BA399-9; BA399 clone #9
As for B10, in experiment [3], the Ka turned out to be 1.28e+13 M⁻¹; the affinity, expressed as Kd, was 0.0783 pM; the dissociation rate constant (koff) amounted to 5.07e-08 s⁻¹; the kon turned out to be 648000 M⁻¹ s⁻¹.

B11: Clone BA399-05 (antibody, V domains shown)
VH: B1 VH with V64K, L100Q
VL: B4 VL with D1A, M4L, S24Y, Q89D
notes: also called BA399-5
B11: in experiment [3], the Ka came to 3.52e+10 M⁻¹, the Kd amounted to 28.4 pM, the off-rate (koff) came to 2.86e-05 s⁻¹ and the kon is 1.01e+06 M⁻¹ s⁻¹.

B12: BA399_CPS_01 (antibody, V domains shown)
VH: B1 VH with L100Q
VL: B4 VL with D1A, M4L, Q89D
notes: also called Clone BA399-01; BA399_01
B12: the binding result in experiment [4] is on record as “binds”.

B13: Anti-IL-6 Ab BA848 (antibody, V domains shown)
VH: B1 VH with Q1E, I37V, S40A, S42G, R43Q, L48M
VL: B4 VL with D1A, M4L
notes: Humanized monoclonal antibody
In experiment [2], B13 showed an equilibrium dissociation constant (Kd) of 127 pM, a dissociation rate constant (koff) of 0.000158 s⁻¹ and a kon of 1.25e+06 M⁻¹ s⁻¹.

B14: BA399_CPS_04 (antibody, V domains shown)
VH: B1 VH with A33S, L100Q
VL: B4 VL with D1A, M4L, Q89D
notes: also called Clone BA399-04; BA399_04
For B14, in experiment [4], the binding result is “binds”.
